Test results taken from the DeepSol protein solubility set.

Assay: soluble on expression in E. coli; label from the status in PepcDB or PDB records

MAHHHHHHMFQNIQTIILDVNDGEMRAGYSGECSPRYNSNLILGLPVGHGATLKHTIFPLLPEIKRDNVELIYGMKYIYDDNNSSKYEINFDVMEKLLEDISGSKALDDNFQDHPILLTEPNKTDRKYREKFTEMMFETYNVYQLFLSRRSVLSCYGCARTSGLVLDVERNCTNLCGIQEGYIFQKHIEEVPIGGDLIDRIYLAYLENVKNIKIYPYFTIEKGQSAEKETDEIRILKCPLVTKPYYLWGSLHVASHLKENLGNECHPLGDKMKKNENKNESNTSYKLPDGSIIDQTTCESLKLIFPYIFFKKKYNQNSVTKLAGITTLQNMDFNSFYDSLKTLKLPVLYKHNYRINASSSVLERVPDNPADKNSNICNSDQIDTYFEIFDGLQDFIKKGILSFISANMTLDEVLNFLIVTGESTMFHNFIGILKSYLPFIDTIKEKSTQLIYSKGADRKCNCFIGASILSSLGTFPQFCMTKSEYEEYGVKNIVDKKCV
soluble on expression in E. coli: not soluble

MEKFGKPLEENGKEATATVIGLGKLGSEELNYYSDVDLMFIHSTDKGKAGNLSLNDFFQRLFQKVVKLLNAQTPEGVPYFVDLDLRPFGKSGPLSMPLRSAELYYESYGRIWERFALLRARYCAGDEELAQKFMKEVVRPFVFGPADYKLVEEIRLMKKRIEAEAKKKFIKGYNVKTGEGGIREVEFSVQSLVILLGSKTPILRESNTYRAIYKLMQKGVFSSEEAQKLEESYTFLRKLEHRIQLRECLQTQVLKESDKETFAKFLGFESKEEFEEKLKETRAFVKSVFSQILPEREEEELDELQEAVIMEDEESGTQILKQKGFKSTRQIFTLLSEPLYGSMNVHFTEKEKKLYIKLIPKLVNLALSSQNPDQSIKNFFKFFFNPTGRRVILSEHKREEFLEKLFTVFSVSDYLSHLVARNPDLVEDALTLYRDFPKFEDFKREFEKYRETLNLSPENLYRRFKTVWEVRIGLVYLLKEEDRYEKLKKLYISLSTLADFILSNLWKDITLEENTALLYALGKLGSRELNFNSDLDLVFAVKSLEEKEKVHEKAKELVRFLTAHTTEGYLYSVDFRLRPMGSKGELVPTFDFYKKYFEKEARTWERLAWTRARYITGNEEFKEEFERLIENFLFEKPWGEKEKREVYEMRMKLQSVAKRGRGVVDLKLGEGGIVDGEFLVQYLLIKEKIRETSMIRGFEVLMEKYPRLKEAYDSFMFLRLVETHLRLSKERGTSVLSEQDIPKVALSLGMKPEELKESIKEKMKKMREVFNEFLAQ
soluble on expression in E. coli: not soluble

MSLKYDVCIIGAGPAGYAAAMRALDLNKSVILIEKDKIGGAGLYNGAISSKTFWELAKDIQTARKRLAQYSPDQHFSVTYQQVLRQVREGIANRRFHLEGQIESLAKQQTSRFRYIKGSAKLVSHNTVEVSTGTEEEIIEAENVVIATGSKPRKLPNIPIDEKIIVTSDGVENFENFPKSLVILGAGVIGCEWATIFSNFGYTSVNIIDKAERILPFEDDDVTDVVEANMKKQGITVHKKSNLLSMRIVDGEVEYILEYTDGRKEMHRVEKVLVSVGRIPNTQNLGLERVGVNILANGQIENTDGQTNIPNIYVAGDISSDVALVNVAELEGRHVIEKMFGLSDSVITYNNVSTIMFVQPEVAGVGMNEKKALQNKMSYKVVKIRYDMIPRAIAMRNNDGFFKILVTNDADMKIIGMRAVGVHASSAIQAVALLISMDKGVEELADMIHPHPSIIEGIQECIRMLLGKSVLKPEFFKGMLSCKSCDENGCVNDIIYLREGHHHHHH
soluble on expression in E. coli: soluble

MGSDKIHHHHHHMNFVTTIGLEVHVELKTNSKIFSPSPVQFGSEPNANTNVIDWGYPGVLPTPNKGVVEAGIKAATALHAEIEHHTYFDRKNYFYPDNPKAYQITQHEKPIAHDGWIEIEVDGKKKKIGIEEMHIEEDAGKNTHENDYSYVDLNRQGTPLIEIVSKPDIASPEEAYAYCEALRQRIQFTGVSDVKMEEGSMRVDVNISIRPAGSDKYGVKTEMKNLNSFNYVRKSLEYEEQRQQQVLMAGGKIQQETRRFDETTGQTILMRVKEGSDDYRYFPEPDIPAVDIDDDWIASVKKTIPEMPGSRRERYINEFGLTAYDAGVLTQTKEMSDFFDATVAEGADPKLASNYLQGDVNAYLNEHKVDLLATDLTPTNLAGMIKMISDETISSKIAKKVFKAIMAGSEPVQWVNDKGLVQLSDPAKLQPIVDDVLDNNQQSIDDFKNGKDRAVGFLVGQIMKKTRGQANPKVVNQLLMTSLKAR
soluble on expression in E. coli: not soluble

SAELQEVQITEEKPLLPGQTPEAAKEAELAARILLDQGQTHSVETPYVSVTFTVYGTPKPKRPAILTYHDVGLNYKSCFQPLFQFEDMQEIIQNFVRVHVDAPGMEEGAPVFPLGYQYPSLDQLADMIPCVLQYLNFSTIIGVGVGAGAYILARYALNHPDTVEGLVLINIDPNAKGWMDWAAHKLTGLTSSIPEMILGHLFSQEELSGNSELIQKYRNIITHAPNLDNIELYWNSYNNRRDLNFERGGDITLRCPVMLVVECNSKLDPTQTSFLKMADSGGQPQLTQPGKLTEAFKYFLQGMGYMASSCMTRLSRSRTASLTSAASVDGNRSRSRTLSQSSESGTLSSGPPGHTMEVSC
soluble on expression in E. coli: not soluble

MEINVDQINLMTKKGLRGDLKNFESVLDFLEKYGNATIVKYGMYSLVFQIAMNKFIDISKECEECGGKCCQIGYPVPVYGFDYEELRNKLSMEDLKKLEKVDSNLFLLRRPCKFQKGWYCSIHKFKPYACLSYPFATEDEQRDAINSYDGKGIPDLEHHHHHH
soluble on expression in E. coli: not soluble

PASQTAANNLGGALNFSVENRTVKRIKFRYNVAKPITTEGLSKLSKGLGEAFLDNTTKAKLAELADPLNARYTGKKPDEVIQAQLDGLEELFADIPPPKDNDKQYKALRDLKRAAVEHRASANKHSVMDNARFETSKTNLSGLSSESILTKIMSSVRDASAPGNATRVAEFMRQDPKLRAMLKEMEGSIGTLARVRLEPKDSLVDKIDEGSLNGTMTQSDLSSMLEDRNEMRIKRLVVFHTATQAENFTSPTPLVSYNSGANVSVTKTLGRINFVYGADQDKPIGYTFDGELSRPSASLKEAAGDLKKEGFELKS
soluble on expression in E. coli: not soluble

MGHHHHHHSHKIRVAHTPDADDAFMFYAMTHGKVDTWLEIEHVIEDIETLNRKAFNAEYEVTAISAHAYALLDDKYRILSAGASVGDGYGPVVVAKSEISLDGKRIAVPGRYTTANLLLKLAVEDFEPVEMPFDRIIQAVLDEEVDAGLLIHEGQITYADYGLKCVLDLWDWWSEQVKLPLPLGLNAIRRDLSVEVQEEFLRAMRESIAFAIENPDEAIEYAMKYSRGLDRERAKRFAMMYVNDYTYNMPESVDAALKKLYEMAEAKGLIKMPKLDILRL
soluble on expression in E. coli: soluble

MRIAIEKIIGLLKNQSSKESNVKIHRLAYITNSKFDGNNYIDRWCKIRNSHIGEYSYIGFGSDFNNVEVGRYCSISSDVKIGLGKHPTHFFSSSPIFYSNNNPFNIKQKFIDFNDQPSRTTIKNDVWIGANVIIMDGLTINTGAVIAAGSVVTKNVGAYEVVGGVPAKVIKKRFDNKTIEKLLESKWWEKTPDKLKGFSVEYLNKKDT
soluble on expression in E. coli: not soluble

MHEFTDTRDDSTLDEIWLVEHYPVFTQGQAGKAEHILMPGDIPVIQSDRGGQVTYHGPGQQVMYVLLNLKRRKLGVRELVTLLEQTVVNTLAELGIEAHPRADAPGVYVGEKKICSLGLRIRRGCSFHGLALNVNMDLSPFLRINPCGYAGMEMAKISQWKPEATTNNIAPRLLENILALLNNPDFEYITALEHHHHHH
soluble on expression in E. coli: not soluble

MINMKALVGGIILPVSSPPIKNGVLLFDEESGKIVAVGKKEEVTIPEDAEIIEAPGKYISPGFVDAHSHIGMIPDGLEWEFQEANDFYSPIAPHLRAVDGFDPYDEAFKEAIAGGVTTVATGPGSANVMGGIGLLAKTYEEGFEKIIKPEAFIKMALGPKRPREYKSKYPYPTTRMGTVALMRTWFKRAREFMEGKIKTDNIDEEEIEMLRLLARALKREIQVKIHLSTSPDEIYAAIRIIKEFNLNATIDHAFGSQLVADMLSREGIPVIYGPPMITRIASFFRYVDDKAPVLLFKKGVNVSIMTDHPVLPEKHLRLLAAVVARNGLSLDDALKLITINPAKALGIDRFVGSLEPGKDADIVISSDHPIKPTSKIEIVFGRGREVYKAD
soluble on expression in E. coli: soluble

MRFKVSKLMAYILRHSPWEFGLEPDEEGFVSIEELVNAVRKVYPWVTEEYIREIVERDEKGRYEIRGNKIRARYGHSYPVILRHEEDKESKVLYHGTVRRNLKGIMREGIKPMKRQYVHLSINYEDAYNTGRRHGEDVVVLIIDAECLRNKGYKILKAGKKVRIVKHVPVDCISGILLEHHHHHH
soluble on expression in E. coli: not soluble

MGSDKIHHHHHHMTIVSAFLLPGSPLPQLRPDITPWGRIREGLSRAGKALAESKPDCVLVYSTQWFAVLDQLWITRARSTGVHVDENWHEFGEQAFDIHSDCALAQRCVDACNAAGIKTRGVDYDQFPIDTGTITATTLMGFGSASLPVVIAANNLYHSAEQTEQLGAIASAALQDKRAAVLGIGGLSNSAFRENIDLEKDHILSEADDKWNQRVLALMESGDIEAIRAILPQYSTEARPDMGLKHFYWLLGAMNASFKKATVHEYAPLYGSGGAIVQFDVQ
soluble on expression in E. coli: not soluble

MSLLSKDIKLLPGSKVEVVIRVSKNVIQEKYNSLLQDYSSRLKIQGFRIGKVPINVIENKYSEGLKATVLEEVINNSFKEFFKEESKIPLSYATPTVKEKNLKLNLDKDFEFTFTYETYPEFKIPSFDEIDIKVEIPEVFIDDSDIDDEIKNLQIENSIIIEDEEGVVKEDSIVKVDFVELDDLSNEIVSTKRQGFVFTVGKSETYYDFDKDVIGMRINEERVIEKSYIADYKFEELAGSSRKLKIKIKSIKKRDLPLIDDEFAQDISDKYNTLDDLKNFIRSSLLNIVEEKKETLKLNKFFSTISEKLEIDIPHSMIEAEIEIAFKDAKRQNKNNMSLEEFKSIFYSSGYIGGDNLKDEILGNLKSKLIMQKMVDLDPIKVTESDVEDEMARQSKNLGVSYEEIKKFYEDQNLISYLKDDIKRERAKKKILENLKEVKGKKLNFRDFVNYKIEGHHHHHH
soluble on expression in E. coli: soluble

MATNESIMTLPLASKFKAEARAMADRGLSTYEAVYQLNKLEEQDKPRADAIMALDESGDYQPLLRAMANVPCIDVGTAKSILSMTIEQERPKVAPELTAAFENFMDMHSPQAVSAGMAYDGRNQGDDGDIDRILKTI
soluble on expression in E. coli: soluble

GMIPIVDSRIGAYLDGLLPEADPVVAAMEQIARERNIPIVDRQTGRLLYLLARIKQPQLVVVPGDGLGCASWWFARAISISSRVVMIDPDRDNVEHARRMLHDNGLIDRVELQVGDPLGIAAGQRDIDILFMDCDVFNGADVLERMNRCLAKNALLIAVNALRRGSVAESHEDPETAALREFNHHLSRRRDFFTTIVPVGNGVLLGYRLS
soluble on expression in E. coli: soluble

MGSDKIHHHHHHMSVNETTNIKKNERSVLLPERHPNHELFICDVLEAIPKDDLASMEHPVFSLATKPDTRTLIYEHRDVKIQITPSVKGLATIFDKDLLIFCISQMIAKKNRGEPLSQNVRLHAYDLLIWTNRETSGDAYRRLIEAFERLRGTTIVTNIKADGEEITTGFGLIDSFKVVRHTATGRMSELEVRISDWMFKIIQGSQVLTLSRDYFRLRKPIERRIYEIARKHCGEQDEWRISIELLQKKTGASSHERAFKAMVRELVKCDHLPDYSVTLEDDMVIFYNRAGLSEKIPLTAFPQLNAETYNDARTVAPGYDVYYLEQEWRDMWVDTGMPLLHNPDKAFIAFCKSRAKRRPMGR
soluble on expression in E. coli: not soluble

MGSDKIHHHHHHSDVVDLEPVDKFSELTAYGTEERCELAVVGAYDAAQCGMYVDPNDFGWARGYPFGAASILQGEMRGEDMNLTAQFYDYTYSATYNLTTANNVAMWETSFEAINRYNTVYAGIEGAVAAGVITEEKGNQYKGECLFLRALTYHNLMIHYALPYNVEGNNNYGMPIYTKAVNDPSQLAEQQSIGRSTVKDTYDQILSDLNNAESMLPDIIDADKIGRASKGAAIALKTRVYLHMRDWNNVVTEAKKLEGGRFILETNPATPFVSYKDNQESIFSIPNDSQDNGSVNGAMSAMMSAREGGRAMCPTSPTLYNSKFWKGDDKRRNLVLYRASDDYYFCDKYQNPQTREEYAPILRYAEVLLNEAEAAARAGDKTLALEKLNQVRDRSLADPATQTYKASDFANTKALVEAILWERRIEFQGEGRRWEDIHRLAADDLLPSGGIPAKIEYNNVKNQGAFVVGGEVKAEWFGNSKQFIPYTDKRFIWPIPLNDILRNPTLAAQQNAGW
soluble on expression in E. coli: not soluble
